# Measured values published in the supplement of paper PMC9732359.
# ± gives the uncertainty stated by the source.
# Assay: protein stability index of a GFP-peptide fusion (yeast GPS) (PSI 1-4); higher = more stable; sorted into four equal gates, so the index is relative within each strain
# Settings: pdr5∆
# How it was run: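 Peptides tiling yeast proteins in 17-residue segments were fused downstream of GFP, with Cherry expressed from the same plasmid. As a pooled library in yeast, mid-log cultures grown in leucine-free medium were sorted into four equal gates by GFP/Cherry fluorescence ratio. Gate plasmids were PCR-amplified and Illumina-sequenced, and barcodes linked reads to strains. Each peptide received a protein stability index equal to the sum of each gate's read frequency times its gate number.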
row,Sequence,protein stability index
1,VKGDLLQEAIDFAQKEI [PRE10],2.84 ± 0.066

# Same assay, conditions: san1∆
row,Sequence,protein stability index
1,TNTSKQFQKARNNVMLL [SRB8],2.94 ± 0.06
2,TPATIVKKPTFTFGQST [YOR098C/NUP1],3.09 ± 0.058
3,TPDANLISKPAKKNNFI [UBP6],3.15 ± 0.12
4,TPDASKPSFSFGVPNSS [YLR335W/NUP2],3.07 ± 0.068
5,TPDDDEIDVENHDRINI [RPN8],2.75 ± 0.17
6,TPGLTFNAIDLARHLPA [RPC82],2.77 ± 0.056
7,TPIAGRFTPGSFTNYIT [RPS0A],2.97 ± 0.082
8,TPLSIKIMVAEWYLSHL [SRB8],2.18 ± 0.092
9,TPSFSFGKTTANLPANS [YLR335W/NUP2],3.01 ± 0.13
10,TPSNIRSLCEVLVYDDK [RPC34],1.26 ± 0.11
11,TQAAEFLSPYISTHLKT [IRR1],2.03 ± 0.073
12,TQHEEEEEQDTGESEES [IRR1],3.26 ± 0.092
13,TQLQICLDQMTEQFCAT [SRB7],2.54 ± 0.08
14,TQPKATSTGTTIVGVKF [PUP1],3.28 ± 0.1
15,TQRIMTNVIAFAFWNLL [YLR018C/POM34],1.74 ± 0.16
16,TQTGQNTGPSTGGLFGA [YGL172W/NUP49],2.93 ± 0.14
17,TRAAKIAPRPLDLLRPV [RPL13A],3.15 ± 0.081
18,TRAKIGGLNDPRLGSID [RPO21],2.58 ± 0.098
19,TRGGASALIENNLFRII [YJL039C/NUP192],2.41 ± 0.052
20,TRISSQFEKSRKVSGPR [RET1],2.92 ± 0.098
21,TRLPAFERPAVKEEKED [RPC53],3.21 ± 0.085
22,TRQASDLASSKEVLAKI [RPN5],2.99 ± 0.077
23,TRVNAQLESYEYMVQYI [RRI1],3.42 ± 0.058
24,TSFDIKREGRNELQEER [POP6],3.73 ± 0.11

row,Sequence,protein stability index
1,TSIEKSSEILSYLSNSL [YML103C/NUP188],1.49 ± 0.1
2,TSLITAVYGPRSIRGSF [MTR3],2.55 ± 0.074
3,TSLSSKDLSNYRKTEGI [YMR153W/NUP53],3.24 ± 0.062
4,TSLTSIKWENAFVSVYS [PRP8],3 ± 0.08
5,TSPFGGARPGRVARRNA [RPS9A],3.02 ± 0.15
6,TSPIDIREKVAKQALDL [SNF2],2.81 ± 0.13
7,TSQMDLARDTPSANNSS [RRP4],1.91 ± 0.077
8,TSQNPQRDAEISQPKSM [BRR2],3.11 ± 0.13
9,TSRTIVRNVKGPVREND [RPS28A],3.59 ± 0.11
10,TTALLKDEEIEKLLQQD [MED8],3.05 ± 0.23
11,TTAVEDEDDDLDEDDVN [RPB4],3.55 ± 0.15
12,TTDANGSKENYQELGSL [MED2],3.15 ± 0.049
13,TTDSLTKVLQADLPGSY [YMR129W/POM152],2.49 ± 0.1
14,TTEMLDKLMVTSIRSTP [MED6],2.81 ± 0.27
15,TTIFVKSTTPYVSALKR [POP7],2.27 ± 0.076
16,TTLHGPGFQLPNRITLT [SRB8],2.74 ± 0.068
17,TTSRFSKQVTDYYQSIY [FAS2],2.47 ± 0.089
18,TTTNTDQNNATMGEETA [SNF12],3.4 ± 0.076
19,TTVSNDLENSPLKTELE [SSN2],3.16 ± 0.072
20,TVAVMSYSGYDIEDALV [RET1],1.97 ± 0.16
21,TVDVSSPTENGVFDPAS [RPL22A],2.69 ± 0.057
22,TVHKTFEGNVATKAING [PRP8],1.85 ± 0.065
23,TVIEGVKEESQPDENTK [SWI3],2.74 ± 0.12
24,TVIRGNSIISLEALDAI [SMX2],2.15 ± 0.11

row,Sequence,protein stability index
1,TVLFFIGVRCYEAYPNT [FAS1],1.66 ± 0.1
2,TVNHSEKFPNDVKLLNP [RPP1],3.08 ± 0.036
3,TVPRIVQLLSKSHNAHV [RPN2],2.08 ± 0.067
4,TVQNEILGDLGKEFGTT [FAS2],2.57 ± 0.093
5,TVQYVRFFWKRSTNKKS [UBP6],1.2 ± 0.15
6,TVSILQESSSLRLLEVT [POP8],2.4 ± 0.083
7,TVTLNKNREVVQVSKAG [RRP45],2.76 ± 0.065
8,TYLNEVLEKDAAIVKKY [YGR119C/NUP57],2.99 ± 0.076
9,TYVEELFPIVKKHGKTD [YJL039C/NUP192],3.32 ± 0.12
10,VAATITSSQKEPFFLVT [SRB8],2.12 ± 0.083
11,VAIGNTYGFLTPNLWAE [RPS2],2.36 ± 0.089
12,VANQTSATFLRIVGSEL [RPT2],2.15 ± 0.15
13,VCAKLFGNIQKVVNFWL [RPO21],1.95 ± 0.11
14,VECTISILRKSSPEEPF [SNF12],2.32 ± 0.066
15,VEDGNILVFQVSMKANK [RPL25],2.5 ± 0.047
16,VEEDHTLGNALRYVIMK [RPC19],2.54 ± 0.085
17,VEETEVPTVPPSQSEEQ [MED4],2.43 ± 0.13
18,VEGISEVQARKSKSVSF [RPT5],3.41 ± 0.068
19,VEYLTRYVAGVQQRYTQ [PRE6],1.65 ± 0.09
20,VEYNLFTNRSTMMANFE [BRN1],2.37 ± 0.095
21,VFGASDKQAEGTPLFTF [YOR098C/NUP1],3 ± 0.097
22,VFKTHSYRGVDLEKLLE [RPS15],3.14 ± 0.045
23,VFPSSILDITDEELVSH [RPP0],3.26 ± 0.068
24,VFSESCSNESFASIPVS [SNU114],2.88 ± 0.062

row,Sequence,protein stability index
1,VFTMKELAQYMKTNVHT [RGR1],2.6 ± 0.082
2,VFVGSGKGTGKTAMAEL [BRR2],3.44 ± 0.071
3,VFYRMQQLRRALPDVVV [RPO31],1.82 ± 0.074
4,VGDVVGGALDNPFEDDM [BRN1],3.58 ± 0.21
5,VGKQIVNIPSFMVRLDS [RPS9A],2.42 ± 0.18
6,VGLRSNTHAVLVALKRN [PRE5],1.15 ± 0.093
7,VGLSQPDAKIQVRRDIP [YMR129W/POM152],2.51 ± 0.059
8,VGPHFKQANNFLWPFKL [RPL7A],2.97 ± 0.065
9,VGSPLTVSILQESSSLR [POP8],3.01 ± 0.063
10,VHKLRHYLVNLTSPAFG [GRR1],1.34 ± 0.077
11,VHPFHVLRINKMLSCAG [RPL10],1.21 ± 0.092
12,VHRDDPALVGKLRGDLR [SNF6],2.7 ± 0.092
13,VIDIGASGCNVTPIIDG [ARP7],2.93 ± 0.071
14,VIIRRLKTRDWIVVLPW [POP1],1.98 ± 0.15
15,VIRIPMQENDKINQERL [CSI1],2.37 ± 0.11
16,VIVTDPRLDAQAIKEAS [RPS0B],2.88 ± 0.072
17,VIYRNSLYKVSFLEKPK [YMR129W/POM152],2.42 ± 0.073
18,VKALRNVPGVETANVAS [RPL4A],2.98 ± 0.051
19,VKCEELSNTLACYRTIM [RRP40],2.01 ± 0.087
20,VKDEAFDDLLKPVYKGK [RET1],3.3 ± 0.11
21,VKDLGQGLKLAKKHKLN [SMC3],2.83 ± 0.097
22,VKEESQPDENTKEMDEV [SWI3],3.07 ± 0.17
23,VKGDLLQEAIDFAQKEI [PRE10],3.2 ± 0.054
24,VKGKNCVVLGCERRSTL [PRE6],2.84 ± 0.23

# Same assay, conditions: ubr1∆
row,Sequence,protein stability index
1,TNTSKQFQKARNNVMLL [SRB8],2.92 ± 0.083
2,TPATIVKKPTFTFGQST [YOR098C/NUP1],3.43 ± 0.075
3,TPDANLISKPAKKNNFI [UBP6],3.21 ± 0.12
